Data: paper PMC9313797

Legend:
Test in all cases: ELISA
[1] = molecular target: FV712‐1478
[2] = molecular target: FV712‐1481
[3] = molecular target: FV712‐1484
[4] = molecular target: FV712‐1487
[5] = molecular target: FV712‐1490

Kd [1]: 0.2 nM | Kd [2]: 0.2 nM | Kd [3]: 0.6 nM | Kd [4]: 0.6 nM | Kd [5]: 1 nM
Substance: Recombinant tissue factor pathway inhibitor alpha (TFPIα) (from UniProt P10646-1 29-304) (natural protein)
